Measurements reported in a protein production outcome set (Wang et al. 2014).

Experiment: label from the status in PepcDB records
In the case of “MAINLNDYKRVAQNLKVNKKNMREFLFDFRVNGKRYRKVETLIERTGWNKKDYEREAQLLLIDYRKKVEANTGNLQITSNTRLNELWELYFQTLDKSTSWTFTKESFYNRYLKEPLGKKKLDSIQEHHIMAIIRHLQAEGMATRTVNTTLEILRPLFDFAIKNKALRDNPTRFIVLKKDNTKKIVINGAEMFKRIFEGINDYYSSQPFYRALFLFGFTGRRKGEILKLKWENIDLDNNYYWIEDTKNNEKQKYELPHFIKEALLQIQDTHTGLVFKSPVTGRMLENTDGQMNKLKKHLNMPELTLHYMRNVLVSALAERGTEAITLSGMLGHRDATTINKYLSLSYHNSSKKGNATMGQIIDAEVVE”, the protein production is reported as “failed”. In the case of “MAIQLKKGNRISLKKEAPGLKKVMLGLGWDMATSSSGGGFFGIFKKPAGSIDLDSGVLCLDSQGKLNSASDFVYYANLNHKSGAIAHQGDNLTGAGEGDDEQIFVDLEQVPATIQSLLFTVTIYQGRQRGQEFGQIKNAFVRLVDLSNNQEIAHYKLSGETYQGKTGMLMAELRREENGWAMTALGDGLDPQDSENLLKKYR”, the protein production is reported as “failed”. With “MAIQVKASLRKNPQDKKAAGKYYAQVVLAPEMTQRQIIDQIADRCTVTGSDVKAVLDALMTVIKRNLANGSPIRLGDLGSFRPSVSGIGSENVDKFTASNVKKARVIYVPSAEIKEAVAMYAFSKVGATAEGGNTEKPGGGDIDNPGGGDEEAPDPTVLEHHHHHH” the protein production was “not failed”. In the case of “MAKAFEEQRRSPDLEALPFEDRIGLLVDREAAERDTRRLTTRLKIAALRQTACVEDVDLRTPRGIDRAVFAKLVEGRWIDRHENLLVTGATGLGKSWLACALGHKACRDNRSVLYHRVPRLFEALALARGDGRYARLLKSLGRAQLLILDDWGLSVLTAAERRDLLEILEDRHGRASTIVTSQLPWTPGMEPLGTPRSPTPFSIASSTTPTASSSPEKACENAAPKPSPLTANQNTDSISHRPLEHHHHHH”, the protein production is reported as “failed”. For “MAKAISAPITFAIILVIGILLLIPFLTYVTYLSQSNQISQAQFNNYIYLKNLEQQRAVSGRPGVYYNGSSLFILYSNGTFVPNASIVVVGILYLNNLGVWQNITSLKYPIILNRTGSVNLPSNVAGKPIILVTSLGNIFFLQPGSSIGPYSNSIGKGGVTIISQIYTSSQIYSTSINITTNINGKFSNYTTPITFPNQTGTFQVKAREYIYYINSKTGKVITGVFSNWQILGSATVNSTTTQGITVTLQGKPVILIANYSQLVQSVNLSIKTNANFSIVVNINGVNYTVNNHALSATVPAGYVNFTVYTLQGNDTSSMSSGIIKHYKFNTINYTGNTYVTNSQLLFLPPNSLPYVQINYVNDYNYYKVFLYDYYDSPPPPGGGLVVILNGTEYNYNNTYGYWIIGGNYSFVPTGIFNGSMSYEAKEVTIAGNNGILNYYFPDIPSYIIINQPMTITVYYDYVIKWVPI”, the protein production was “failed”. For “MAKASSPTDTGKQKVRSAEVGTDILKALAELSPSTSLSRLAEHVQMPASKVHRYLQALIASGFAEQDAATNHYGLGREALRVGLAALGSIDVLKVAAMPLSQLRDELNESCFIAVWGNQGATVVSIEPAVRAVTVVTQIGSVLPLLSSSTGLVFAAYLPERETQELRDRELAALQQTASDYHTLLAGIREKGLHHVHGLLMPGVDALSAPVFNAMGQIAAVMTVVGPTSIFHADEHGPAAQSLLTAARTVSWRMGYAGNPHCASTSSVSSSTSQSSS”, the protein production was “failed”. In the case of “MAKAVRIGAEGYKLKLDGAVQEIDGRSVVLVDVDSITPLMFGGSMKEKAKLLDAKFLRKYYEENKDFFFLSTREEKKMFVTLQLAREYAELVDDQFLRGFFEKALESAQKAF”, the protein production is reported as “not failed”. For “MAKHAILVIDMLNDFVGEKAPLRCPGGETIIPDLQKIFEWVRGREGDDIHLVHIQEAHRKNDADFRVRPLHAVKGTWGSDFIPELYPQEDEYIVQKRRHSGFAHTDLDLYLKEEGIDTVVLTGVWTNVCVRSTATDALANAYKVITLSDGTASKTEEMHEYGLNDLSIFTKVMTVDQYIQAWENDEDPWVGGGDAQNKVK”, the protein production was “not failed”. In the case of “MAKHVIIGAGSIGTNVARLLAEGGESVRIVTRSGSGPEHPLVDRVAADASDPSRLTELSRGAGVIYHCANPPSYTVWERLLPPLQTAAITAAKANDAVLALTGSLYAYGPQPGGRMNEHTPMAATGHKGRLRRRMWEQALAGGIRTVEVRGSDYIGKDANGIYSLLIKSALQKGKAAWITGHLDMPHTFTFNGDMAQALITLASEERAWGRPWHVPSAPAVTIRELARRYAVAAGRPPIKLIQIPRSVTRTAGLIVPIAREMAEMDYQWYAPFHMDATETTETFGLTATDLDTAVRNEVG”, the protein production is reported as “failed”. For “MAKILEGPAMKLFNKWGIPVPNYVVIMDPKRLAQLGEANKWLRESKLVVKAHEAIGGRFKLGLVKIGLNLDEAIQASREMLGAKVGTAEVRQVIVAEMLDHDAEFYVSIIGNRDGAELLISKYGGVDIEDNWDSVRRIQIPLDEHPTIEQLTALAKEAGFEGEIAERVGKICSRLVLCFDNEDAQSIEINPLVIRKSDMRFAALDAVMNVDWDARFRHADWDFKPVSEIGRPFTEAEQQIMDIDSRIKGSVKFVEVPGGEIALLTAGGGASVFYADAVVARGGTIANYAEYSGDPPDWAVEALTETICRLPNIKHIIVGGAIANFTDVKATFSGIINGLRESKSKGYLEGVKIWVRRGGPNEAQGLAAIRKLQEEGFDIHVYDRSMPMTDIVDLALKS”, the protein production was “not failed”. For “MAKKRGKPEIDWTDDDKEIIWVSKSEIKRDSEHLKKLGAELIELTPQNLEKIPLDEDLKYAIRQAQSFKLEARRRQIQFIGKLLRNRDSAPIQDALDKVKNRHNQQQALLHKLELIRDQLINMGDASLNQLLSEYPQLDRQHLRNLIRMAQKEKQINKPAKNYHEILQYLKSELIV”, the protein production was “not failed”. For “MAKKRITLPQNFDELITAGDVEALKAVYDKCELTAHNGRYSLNTALHYGGVPDELVIWLVEQGLDVNTLDYYGRTPLYKHATLGRDTVKLLYELGGDIQKPDTYGSTPLHTAAGFFRPKIVSFLIEKDADVNAKNDMGRTPLAEALATCRNSNVVQAAEIAEMLIKAGAEVVPEMAERVEIIGKDFEFHRENFNKDSLAETEAGLEKLYALFDVKPAPKRKIHDGVSPIIVKTGSWKEQYDELWEMLIPSSGAAKTVQGEVIRITGRVQDELYRNGGVNWDKDYRNMLNSLPNHFASGTPLSEEELKETKELISNIRANGEDEEVITERLRELSVLWVLLNPTPILLGKTNYNR”, the protein production was “failed”. With “MAKLRHSRFQARKWSTLMLVLFMLFMLTIVLLMLLAFGVFSLPINNDESSPIDLSYFRRAATERSEGLGKRGDQWTEVLSWEPRAFVYHNFLSKEECEYLISLAKPHMVKSTVVDSETGKSKDSRVRTSSGTFLRRGRDKIIKTIEKRIADYTFIPADHGEGLQVLHYEAGQKYEPHYDYFVDEFNTKNGGQRMATMLMYLSDVEEGGETVFPAANMNFSSVPWYNELSECGKKGLSVKPRMGDALLFWSMRPDATLDPTSLHGGCPVIRGNKWSSTKWMHVGEYKI” the protein production was “failed”. In the case of “MAKLSRKERHRLLLQKIKENPFITDEELAEEFGCSVQTIRLDRAILDIKEVRERIKEMAKESLGKLKTISPRDVVGEIIDIELGSYAIATFEPELWMTFSNSQMVKGQHIYAFAESIAMSVIDAKAALIGIANIKYKTPVFANDRLVARAELKKKRNNKYIVWVFIKRNNEEVFRGKFILVAIDDENKETGQTGV”, the protein production is reported as “failed”. With “MAKNKLLRMDNVSIVVESLDNAISFFEEIGLNLEGRANVEGEWAGRVTGLGSQCVEIAMMVTPDGHSRIELSRFLTPPTIADHRTAPVNALGYLRVMFTVEDIDEMVSRLTKHGAELVGEVVQYENSYRLCYIRGVEGILIGLAEELGNK” the protein production was “not failed”. With “MAKNQSGSIFNTKVTIKYDKEKIIKLSSEMFSEDLCIQCGRCCMIHVYTTDEKIDPEIVYCNHLDVETKRCKIYKNRFNKEKECLSMLEAILTSALPKDCPYVKNYPSYEEPWFYGLLRGKNLK” the protein production was “failed”. With “MAKPVYHAITKYSPKKPVIVFVPSRKQTRLTAIDILTTCAADIQRQRFLHCTEKDLIPYLEKLSDSTLKETLLNGVGYLHEGLSPMERRLVEQLFSSGAIQVVVASRSLCWGMNVAAHLVIIMDTQYYNGKIHAYVDYPIYDVLQMVGHANRPLQDDEGRCVIMCQGSKKDFFKKFLYEPLPVESHLDHCMHDHFNAEIVTKTIENKQDAVDYLTWTFLYRRMTQNPNYYNLQGISHRHLSDHLSELVEQTLSDLEQSKCISIEDEMDVAPLNLGMIAAYYYINYTTIELFSMSLNAKTKVRGLIEIISNAAEYENIPIRHHEDNLLRQLAQKVPHKLNNPKFNDPHVKTNLLLQAHLSRMQLSAELQSDTEEILSKAIRLIQACVDVLSSNGWLSPALAAMELAQMVTQAMWSKDSYLKQLPHFTSEHIKRCTDKGVESVFDIMEMEDEERNALLQLTDSQIADVARFCNRYPNIELSYEVVDKDSIRSGGPVVVLVQLEREEEVTGPVIAPLFPQKREEGWWVVIGDAKSNSLISIKRLTLQQKAKVKLDFVAPATGAHNYTLYFMSDAYMGCDQEYKFSVDVKEAETDSDSD” the protein production was “failed”. With “MAKSLTFSTFSPNNTLKKNVIPIVLLHGWGLNSGVWQPLLELFHRNDESIYQLITIDLPGFGINSAVDIKPYSLANICHHIEQVIDQPAIYLGWSLGGLIATEMSLKYPEKVLASITVASSPYFVEQPTDNWPGIKENVLESFHKQLAQDTAKTISGFLKIQAMGSPHIRQDLKLITQLVMAHTLPSQQTLADSLALLSNSDLRLHLSKIKQPLLRLYGHNDSLVPKEVMEKISYLAPNSDQHLFADASHAPFISHLDDFYQVLVVWLDSHFNLEHHHHHH” the protein production was “failed”. For “MAKSRLLLSELLDQLSFALCIVRNDYVIVKVNEYFESRVIFDGETMQGKNILELFPESADYLKRKIDTALVIESSSFSSWEQKPHLLPFKSSRPVSGEEEQMYQNLEVIPIHSED”, the protein production was “failed”. In the case of “MAKTLFWLCLLLPFYAWVGYPLLLALLSLFVRPRPVQEGAPLSVSVIIAAHNEGPHIEHKLRTLLQQDYPATDLQIILASDGSSDDTVATALGVRDSRIVVLDLPRVGKAGALNAAVELARNDILVFTDADNQWSHDTLGKLLAPLSDPQVGACGGHMIIPDPGHNLSLGDSLYRHYEAWLRQAENRTGCMVSADGALLALRRELFQRIPAEVNDDFFISTCAPVAGKRIVYVEEAQVLDQGVDEAGKQYRRRLRVTVGGLQSLAQRRELMNPLRHGAYAIALISHKLIRRLAPVLLLPLLVSSLLLWNAGAFYSLALLAQVLGYGAGIMGLLDRRGRLPKVFRLAGFVLVTMAGMSMGLWQFLRGQRYALWNPQQNR”, the protein production is reported as “failed”. With “MAKTSRPSKAKQQALVHQLIGKIDAQPEDYHAYYELVVLLTAGQDFEQAEALAMKALGKFDHQQPAADYLRYALGNVYYQAQTYDKALPYYQQITDDQLKQDAYLMSAQALMAQHDYQHALVWAITAQEARPQQLDANLLVADILLALGNNQQASDYYQRAYKIDSQSGRAAFNLGLTAMVLGKPYATWFERAQKLDSQYFKSHQQQLTDIEKMLAAQADNQNH” the protein production was “failed”. In the case of “MAKVTISSVIDAPVEKVWARIRDFNGLPCWHPRMVESHIEDGKNASTIGCVRNFELITGARLREKLLDFSDENFLVSYSILETPQPLTNHKATLQLRRVTDGDRTYAEWTASFDAAPEEADKIAAGMGANVFQGGFNALKSHFSGQD”, the protein production is reported as “failed”. For “MAKWRLATATLRRQLQSSSPTISTFKNPTKALSAAAHQSTRSYSTTQTDDSRGKWLTLPPFSPTIDGTAVGKDLLSDGDSVKSSTDNSKTTALRWILRCRPDLPRTLVQKLFRLRQVRREMSMSVDGDELQRSQLKRVAAKESLNVGDRIYLPLSVDNDTPQTPPAKKESFQCSDEERKFVCSLVLYKDPAIIVLNKPHGLAVQGGSGIKTSIDELAASCLKFDKSESPRLVHRLDRDCSGLLVLARTQTAATVLHSIFREKTTGASAYGVKKNVKSLKRKYMALVIGCPPRQRGQISAPLRKVVVDDGKSERITVNDNGELVSTQHAITEYRVIESSPHGYTWLELRPLTGRKHQLRVHCAEVLGTPIVGDYKYGWQAHKAREPFVSSENNPTKQSSSPFGLDLDGGDVSSKQPHLHLHSKQIDLPNISQLLEKMQVSSDSDISDLDSLKFDAPLPSHMQLSFNLLKSRVETCDKN”, the protein production was “failed”.
